Assay results: patent publication US20210077638A1

Columns and labels:
[1] = molecular target: human MET on EBC-1, NCI-H441 and NCI-H358 cells (human) (UniProt P08581); assay: saturation radioligand binding (antibody binding capacity) assay with 89Zr-DFO-Comp1 on EBC-1 cells, 4 C, 45 min, gamma counting; x axis is total antibody dosed, not free
[2] = molecular target: human MET on EBC-1, NCI-H441 and NCI-H358 cells (human) (UniProt P08581); assay: saturation radioligand binding on NCI-H441 cells, 4 C, single-site fit, n=4
[3] = molecular target: human MET on EBC-1, NCI-H441 and NCI-H358 cells (human) (UniProt P08581); assay: saturation radioligand binding on NCI-H358 cells, 4 C, single-site fit, n=2
[4] = molecular target: human MET on EBC-1, NCI-H441 and NCI-H358 cells (human) (UniProt P08581); assay: saturation radioligand binding on EBC-1 cells, 4 C, single-site fit, n=4
[5] = molecular target: human MET on EBC-1, NCI-H441 and NCI-H358 cells (human) (UniProt P08581); assay: saturation radioligand binding (antibody binding capacity) assay with 89Zr-DFO-Comp1 on NCI-H441 cells, 4 C, 45 min, gamma counting; x axis is total antibody dosed, not free

human MET on EBC-1, NCI-H441 and NCI-H358 cells (human), sequence (P08581 25-1390): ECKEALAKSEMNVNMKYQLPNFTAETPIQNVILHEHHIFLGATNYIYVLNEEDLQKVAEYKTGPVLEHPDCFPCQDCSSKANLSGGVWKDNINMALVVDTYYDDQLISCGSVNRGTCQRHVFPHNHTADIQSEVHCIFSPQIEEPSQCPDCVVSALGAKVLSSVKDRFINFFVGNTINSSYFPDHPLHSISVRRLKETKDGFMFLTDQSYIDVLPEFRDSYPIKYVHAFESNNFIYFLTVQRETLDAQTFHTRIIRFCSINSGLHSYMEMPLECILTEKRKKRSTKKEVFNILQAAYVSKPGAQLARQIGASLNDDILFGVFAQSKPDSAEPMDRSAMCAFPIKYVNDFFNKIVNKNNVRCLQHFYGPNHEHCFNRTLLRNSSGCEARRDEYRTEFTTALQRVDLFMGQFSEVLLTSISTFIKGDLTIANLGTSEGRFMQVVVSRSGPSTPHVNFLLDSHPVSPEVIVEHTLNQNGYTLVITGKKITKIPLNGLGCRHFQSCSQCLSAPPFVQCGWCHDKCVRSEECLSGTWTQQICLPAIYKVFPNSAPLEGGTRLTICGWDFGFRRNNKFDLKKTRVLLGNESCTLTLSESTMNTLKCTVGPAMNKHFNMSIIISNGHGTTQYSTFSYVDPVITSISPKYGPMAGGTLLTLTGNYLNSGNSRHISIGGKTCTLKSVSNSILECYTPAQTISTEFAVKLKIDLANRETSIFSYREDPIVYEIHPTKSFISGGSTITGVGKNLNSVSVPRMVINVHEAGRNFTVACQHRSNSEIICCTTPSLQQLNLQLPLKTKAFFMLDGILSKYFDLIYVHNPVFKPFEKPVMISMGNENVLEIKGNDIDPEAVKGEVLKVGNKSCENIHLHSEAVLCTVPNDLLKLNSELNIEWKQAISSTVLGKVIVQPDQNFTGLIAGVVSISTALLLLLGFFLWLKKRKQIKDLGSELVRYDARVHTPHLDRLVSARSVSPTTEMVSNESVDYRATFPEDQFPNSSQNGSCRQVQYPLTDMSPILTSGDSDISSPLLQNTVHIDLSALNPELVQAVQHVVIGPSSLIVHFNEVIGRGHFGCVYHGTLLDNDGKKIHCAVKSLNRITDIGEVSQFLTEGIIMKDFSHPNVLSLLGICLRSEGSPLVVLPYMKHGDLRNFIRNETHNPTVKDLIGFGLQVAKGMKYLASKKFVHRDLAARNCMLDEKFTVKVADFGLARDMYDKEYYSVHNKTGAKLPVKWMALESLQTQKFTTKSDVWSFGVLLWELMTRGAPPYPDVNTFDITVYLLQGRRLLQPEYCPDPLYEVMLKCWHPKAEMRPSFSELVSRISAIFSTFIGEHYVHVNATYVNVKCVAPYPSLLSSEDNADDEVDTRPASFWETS

EC50 (read off the curve) [1]: 4 nM
ABC (antibody binding capacity) [2]: 62000 per cell
ABC (antibody binding capacity) [3]: 21000 per cell
ABC (antibody binding capacity) [4]: 250000 per cell
EC50 (read off the curve) [5]: 3 nM
B1: 89Zr-DFO-anti-Met single-arm comparator antibody (Comp1; Onartuzumab) (antibody, INN chains, looked up, V domains shown)
VH: EVQLVESGGGLVQPGGSLRLSCAASGYTFTSYWLHWVRQAPGKGLEWVGMIDPSNSDTRFNPNFKDRFTISADTSKNTAYLQMNSLRAEDTAVYYCATYRSYVTPLDYWGQGTLVTVSS
VL: DIQMTQSPSSLSASVGDRVTITCKSSQSLLYTSSQKNYLAWYQQKPGKAPKLLIYWASTRESGVPSRFSGSGSGTDFTLTISSLQPEDFATYYCQQYYAYPWTFGQGTKVEIK
modifications: one-armed monovalent 89Zr-DFO label
